Results published in paper doi:10.1101/2021.10.27.466211 (bioRxiv, 2021).

Target: the molecule itself
Test: cross-linking

B1: PomA-L22C/T33C (natural protein, Vibrio alginolyticus, UniProt O06873 1-253, looked up)
chain: MDLATLLGLIGGFAFVIMAMVCGGSIGMFVDVCSILIVVGGSIFVVLMKFTMGQFFGATKIAGKAFMFKADEPEDLIAKIVEMADAARKGGFLALEEMEINNTFMQKGIDLLVDGHDADVVRAALKKDIALTDERHTQGTGVFRAFGDVAPAMGMIGTLVGLVAMLSNMDDPKAIGPAMAVALLTTLYGAILSNMVFFPIADKLSLRRDQETLNRRLIMDGVLAIQDGQNPRVIDSYLKNYLNEGKRALEIDE
stoichiometry N: ≤ 5
